Measurements taken from the supplement of paper PMC6757056.
± gives the standard deviation of the averaged measurements.

B1: library; a variant is named by its letters at N, in order (parent)
chain: GCUGUCACCGGUGCUUGGUACGUUAUAUUCAGCCGGUCUGAUGAGUCUNNNNNNAGACGAAACAGC

Columns and labels:
(6R,S)-folinic acid [1] = variants of: B1; test: normalized RNA/DNA level without ligand (relative to sTRSVctl = 100) (log10 (% of sTRSVctl)); HEK293T overexpressing SLC46A1; higher = less ribozyme self-cleavage, higher mRNA level; settings: without (6R,S)-folinic acid; ligand present: no
Method in brief: (§1)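 Only sequences with at least 100 DNA reads were analyzed, from HEK293T cells transfected with 4 µg per 6-well well of ribozyme switch library plasmids 72 h before RNA extraction with EDTA. Any ligand was added 1 h before transfection. RNA level was defined as RNA over DNA reads, normalized to a spiked-in non-cleaving sequence or to the top sequences, then scaled and log-transformed. The top set was 25 sequences, and the scaling was ×100 followed by log10.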

(6R,S)-folinic acid [2] = variants of: B1; test: normalized RNA/DNA level with ligand (relative to sTRSVctl = 100) (log10 (% of sTRSVctl)); HEK293T overexpressing SLC46A1; ligand concentration (+) RNA-Seq: 6 mM; higher = less ribozyme self-cleavage, higher mRNA level; settings: with (6R,S)-folinic acid; ligand present: yes
Method in brief: as §1

GCUGUCACCGGUGCUUGGUACGUUAUAUUCAGCCGGUCUGAUGAGUCUUCCUUUAGACGAAACAGC [UCCUUU]
normalized RNA/DNA level without ligand (log10) ((6R,S)-folinic acid [1]): 2.07 ± 0.021 | normalized RNA/DNA level with ligand (log10) ((6R,S)-folinic acid [2]): 2.08 ± 0.032

GCUGUCACCGGUGCUUGGUACGUUAUAUUCAGCCGGUCUGAUGAGUCUACGAAUAGACGAAACAGC [ACGAAU]
normalized RNA/DNA level without ligand (log10) ((6R,S)-folinic acid [1]): 1.95 ± 0.021 | normalized RNA/DNA level with ligand (log10) ((6R,S)-folinic acid [2]): 2 ± 0.035

GCUGUCACCGGUGCUUGGUACGUUAUAUUCAGCCGGUCUGAUGAGUCUACGAACAGACGAAACAGC [ACGAAC]
normalized RNA/DNA level without ligand (log10) ((6R,S)-folinic acid [1]): 2.02 ± 0.021 | normalized RNA/DNA level with ligand (log10) ((6R,S)-folinic acid [2]): 2.03 ± 0.044

GCUGUCACCGGUGCUUGGUACGUUAUAUUCAGCCGGUCUGAUGAGUCUUCGAAAAGACGAAACAGC [UCGAAA]
normalized RNA/DNA level without ligand (log10) ((6R,S)-folinic acid [1]): 1.927 ± 0.0063 | normalized RNA/DNA level with ligand (log10) ((6R,S)-folinic acid [2]): 1.979 ± 0.0054

GCUGUCACCGGUGCUUGGUACGUUAUAUUCAGCCGGUCUGAUGAGUCUUCGAACAGACGAAACAGC [UCGAAC]
normalized RNA/DNA level without ligand (log10) ((6R,S)-folinic acid [1]): 2.027 ± 0.01 | normalized RNA/DNA level with ligand (log10) ((6R,S)-folinic acid [2]): 2.006 ± 0.0085

GCUGUCACCGGUGCUUGGUACGUUAUAUUCAGCCGGUCUGAUGAGUCUACGAUAAGACGAAACAGC [ACGAUA]
normalized RNA/DNA level without ligand (log10) ((6R,S)-folinic acid [1]): 1.971 ± 0.0039 | normalized RNA/DNA level with ligand (log10) ((6R,S)-folinic acid [2]): 2.02 ± 0.036

GCUGUCACCGGUGCUUGGUACGUUAUAUUCAGCCGGUCUGAUGAGUCUACGAUGAGACGAAACAGC [ACGAUG]
normalized RNA/DNA level without ligand (log10) ((6R,S)-folinic acid [1]): 1.925 ± 0.016 | normalized RNA/DNA level with ligand (log10) ((6R,S)-folinic acid [2]): 2.03 ± 0.031

GCUGUCACCGGUGCUUGGUACGUUAUAUUCAGCCGGUCUGAUGAGUCUACGAGGAGACGAAACAGC [ACGAGG]
normalized RNA/DNA level without ligand (log10) ((6R,S)-folinic acid [1]): 1.86 ± 0.034 | normalized RNA/DNA level with ligand (log10) ((6R,S)-folinic acid [2]): 1.995 ± 0.011

GCUGUCACCGGUGCUUGGUACGUUAUAUUCAGCCGGUCUGAUGAGUCUACGAGAAGACGAAACAGC [ACGAGA]
normalized RNA/DNA level without ligand (log10) ((6R,S)-folinic acid [1]): 1.968 ± 0.011 | normalized RNA/DNA level with ligand (log10) ((6R,S)-folinic acid [2]): 2.03 ± 0.028

GCUGUCACCGGUGCUUGGUACGUUAUAUUCAGCCGGUCUGAUGAGUCUACGAGUAGACGAAACAGC [ACGAGU]
normalized RNA/DNA level without ligand (log10) ((6R,S)-folinic acid [1]): 2.027 ± 0.0034 | normalized RNA/DNA level with ligand (log10) ((6R,S)-folinic acid [2]): 2.028 ± 0.0065

GCUGUCACCGGUGCUUGGUACGUUAUAUUCAGCCGGUCUGAUGAGUCUACGAGCAGACGAAACAGC [ACGAGC]
normalized RNA/DNA level without ligand (log10) ((6R,S)-folinic acid [1]): 2.005 ± 0.012 | normalized RNA/DNA level with ligand (log10) ((6R,S)-folinic acid [2]): 2.041 ± 0.019

GCUGUCACCGGUGCUUGGUACGUUAUAUUCAGCCGGUCUGAUGAGUCUCCGAGUAGACGAAACAGC [CCGAGU]
normalized RNA/DNA level without ligand (log10) ((6R,S)-folinic acid [1]): 2.029 ± 0.014 | normalized RNA/DNA level with ligand (log10) ((6R,S)-folinic acid [2]): 2.03 ± 0.032

GCUGUCACCGGUGCUUGGUACGUUAUAUUCAGCCGGUCUGAUGAGUCUCCGAGGAGACGAAACAGC [CCGAGG]
normalized RNA/DNA level without ligand (log10) ((6R,S)-folinic acid [1]): 2.011 ± 0.006 | normalized RNA/DNA level with ligand (log10) ((6R,S)-folinic acid [2]): 2.01 ± 0.028

GCUGUCACCGGUGCUUGGUACGUUAUAUUCAGCCGGUCUGAUGAGUCUCCGAGAAGACGAAACAGC [CCGAGA]
normalized RNA/DNA level without ligand (log10) ((6R,S)-folinic acid [1]): 1.988 ± 0.01 | normalized RNA/DNA level with ligand (log10) ((6R,S)-folinic acid [2]): 2.011 ± 0.0034

GCUGUCACCGGUGCUUGGUACGUUAUAUUCAGCCGGUCUGAUGAGUCUCCGAAUAGACGAAACAGC [CCGAAU]
normalized RNA/DNA level without ligand (log10) ((6R,S)-folinic acid [1]): 2.002 ± 0.013 | normalized RNA/DNA level with ligand (log10) ((6R,S)-folinic acid [2]): 2.019 ± 0.018

GCUGUCACCGGUGCUUGGUACGUUAUAUUCAGCCGGUCUGAUGAGUCUCCGAAAAGACGAAACAGC [CCGAAA]
normalized RNA/DNA level without ligand (log10) ((6R,S)-folinic acid [1]): 2.0005 ± 0.0006 | normalized RNA/DNA level with ligand (log10) ((6R,S)-folinic acid [2]): 2 ± 0.016

GCUGUCACCGGUGCUUGGUACGUUAUAUUCAGCCGGUCUGAUGAGUCUCCGAACAGACGAAACAGC [CCGAAC]
normalized RNA/DNA level without ligand (log10) ((6R,S)-folinic acid [1]): 2.035 ± 0.0081 | normalized RNA/DNA level with ligand (log10) ((6R,S)-folinic acid [2]): 2.02 ± 0.049

GCUGUCACCGGUGCUUGGUACGUUAUAUUCAGCCGGUCUGAUGAGUCUCCGAUCAGACGAAACAGC [CCGAUC]
normalized RNA/DNA level without ligand (log10) ((6R,S)-folinic acid [1]): 2.055 ± 0.018 | normalized RNA/DNA level with ligand (log10) ((6R,S)-folinic acid [2]): 2.03 ± 0.03

GCUGUCACCGGUGCUUGGUACGUUAUAUUCAGCCGGUCUGAUGAGUCUCCGAUAAGACGAAACAGC [CCGAUA]
normalized RNA/DNA level without ligand (log10) ((6R,S)-folinic acid [1]): 1.996 ± 0.0089 | normalized RNA/DNA level with ligand (log10) ((6R,S)-folinic acid [2]): 2.011 ± 0.018

GCUGUCACCGGUGCUUGGUACGUUAUAUUCAGCCGGUCUGAUGAGUCUCCGAUGAGACGAAACAGC [CCGAUG]
normalized RNA/DNA level without ligand (log10) ((6R,S)-folinic acid [1]): 2 ± 0.023 | normalized RNA/DNA level with ligand (log10) ((6R,S)-folinic acid [2]): 1.99 ± 0.036
